From the DeepSol protein solubility set

assay: soluble on expression in E. coli; label from the status in PepcDB or PDB records

Sequence | soluble on expression in E. coli
MTDDVDTHIHEKFDLQKRLGKGAYGIVWKAYDKRSRETVALKKIFDAFRNPTDSQRTFREVMFLQEFGKHPNVIKLYNIFRADNDRDIYLAFEFMEADLHNVIKKGSILKDVHKQYIMCQLFRAIRFLHSGNVLHRDLKPSNVLLDADCRVKLADFGLARSLSSLEDYPEGQKMPDLTEYVATRWYRSPEILLAAKRYTKGVDMWSLGCILAEMLIGRALFPGSSTINQIERIMNTIAKPSRADIASIGSHYAASVLEKMPQRPRKPLDLIITQSQTAAIDMVQRLLIFAPQKRLTVEQCLVHPYVVQFHNPSEEPVLNYEVYPPLPDHIQLSIDDYRDRLYEMIDEKKASFKRIQHEKIRPYGEDKSRAPIAQAECSDTDYDTARSLQRTTSMDKNNSSSHDSSSGTLRERAASAESRTSKDSNGEMRNGNGNTPSSIKQRRRSVERARLFANIKPSKILHPHKLISNY | not soluble
MAKDLLLEIGLEEMPAHVVTPSRIQLEEKVIKFLDEHHLDYETVQSFATPRRLAVKVTAIPEKQADVEEEVKGPAKKIALDAEGNWSKAAQGFVRGQGVTTEDIVFKELNGVEYVYVTKFTKGQSAKEVLTKLNDVITSLTFPVTMHWANYDFEYIRPIHWIVALLDDEVIPFKVLDVTTGQTSRGHRFLGDDVTFQHANEYEAKLKEQFVVVQPNERKQMIVDQANALAAEKNWQLALDEELLEEVTNLVEYPTAFVGSFDEKYLSVPDEVLVTSMKEHQRYFDVRNDQGLLMPHFIAVRNGDNVHLENVIKGNEKVLIARLEDAEFFYNEDKKLTIEACVEKLKNVTFHEKIGSIYEKMQRVALIAQIIGRKVGLSEDELEDLKRASEIYKFDLVTNMVGEFPELQGIMGEKYALLQGEKPAVATAIREHYLPTSSEGELPETAIGAVLALADKLDSVFSFFSVGMIPTGSNDPYALRRQTYGVIRIIEDKGWTFPLVQLQTEVDEAVNQDVEKYGVLLNEGQAEVVEFVKARLRQLLMTKNVRHDIIDAVVSAEQADLSKLFASANILKSRFEDQDFKPSMEALTRVINLAKKGQELLGDTEEGIDPSLFENKAEKELYQAVNDLSEAFATRTIAENYEALVNLRPLIDAYFNETMVMVEDEKVKQNRLKQLMQIAKMALSIASLDLLIVK | not soluble
MALSKFNLFIGDILFNTLTGYAIKLESWEIEKLRKGVVPEHLKDIIEEGFSATDEDLDEEIEKFLRKPVLEPTLVLTYNCNFDCIYCFQKGFRKNISVSDKVTRGFVNYIRKNEKGRKVRVTYFGGEPILQLRKIEEISRELSDLKYSFSVVTNGSLLTRKIVERLIPLGLTHVQITLDGPKEVHDKRRFFVSGEGTFDVIVKNLKEIQDMVKVVLRINIDVKNLNEIGELLNELKMEGINRVRLDPHLVHSNVFRNEWWDFTISSKAEGDVMVKFWEIARKYGFEVPQDVLRLGLCVAYSSEDIVVDPEGNIYPCWAFTGNPLYVKGKLEEDGSVKVTNKSLWWKVKIEDKCRECPFLPLCMGGCKFLATINGDDCKREAYEKIVRSIRWVMG | not soluble
MELELDDDVFFADISKQLNLLITDEDEQNPISLSSSVSFQGLFRGNYQTSATPYMMYNEQINYNVIRESKGTGVFIPRSSQPRRKHNHHPHQKKQGRFIGSFIPKQQFPHHGHDNNLTTLNNNNQESITFHHASTNPRRTYRDAASLFT | not soluble
MAFSIPPLPWGYDGLAAKGISKEQVTFHYDKHHMGYVTKLNAAANSNPALAAKSVEEIIRTEKGPIFNLAAQIFNHNFYWESMSPNGGGEPSGKLAEAIRASFGSFAKFKEEFTNAAVGHFGSGWAWLVQDTTTKKLKVFQTHDAGCPLTEADLKPILTCDVWEHAYYIDYKNDRPAYVQTFWNVVNWDHAENQFTR | soluble
MAHHHHHHMSAHEEEIDMILSMFSDECERYEGTSDSIIVHLPFHFELQVTLPPHGYPDASYPKLYLLSSPNAQLASAFSQAVYRRMRDEISLGIPMLALLIPLAQSVAEELKDLKERAEKARQDEAVERMSELQRKEEHRRETGIAIWSGQAIVDRRSRFVAHMARVHSMDEVREVVGHLRSVKSIACAAHPTIYAYRFTDANGVLQKDSDDDGESGASIKMMFLLDHLQIDGYVVVVTRWWGGILLGPDRFKHIMEVTKNLLLTIPEREKEMAASAKRKSLR | soluble
MVNLTRIYTRTGDKGTTALGDMSRVPKTDLRISAYADANEANAVIGTAIALGGLPEEVVKVLVRVQNDLFDVGADLSTPVVENPEYPPLRVEQFYVDKLEADCDRYLAEVEKLRSFILPGGTAGAALLHQACTVVRRAERSTWAALEAHGETMNPLTATYLNRLSDLLFILARVANKEVGDVLWVPGGERLEHHHHHH | soluble
MIAPRLVSIIIPTLNEEDAIAPTLRQARRQEGPVEILVADGGSTDDTRSVAQARGATVLQAPRGRAPQMNHGADCSSGDILLFLHADTRLPPNGLSRIRRALAAPDAIAGTFRLRFDDPTPLLRFYAWCTRWPWIRLCFGDRGQFVERSAFEAVGGFPDWPLFEDLELAARLQGHGRFRFLDAAVTTSARRFRRHGPLRQQLLNLYLWGHYLWGTDPDLLASLYPDRLGPVDQQPRSLEHHHHHH | soluble
MYKLSGKAVEDFRGIYDYTLGKFGDEQADRYTDSLGTFLDTLSQMPEIGQDYDAIPEVKKIAFRFHTVYYVIRVDDILIARILHQLMEPRRHW | soluble
MSLDFHGVFPYLVSPVDAEGRVRADVMGRLCDDLIQAGVHGLTPLGSTGEFAYLGTAQREAVVRATIEAAQRRVPVVAGVASTSVADAVAQAKLYEKLGADGILAILEAYFPLKDAQIESYFRAIADAVEIPVVIYTNPQFQRSDLTLDVIARLAEHPRIRYIKDASTNTGRLLSIINRCGDALQVFSASAHIPAAVMLIGGVGWMAGPACIAPRQSVALYELCKAQRWDEALMLQRKLWRVNEAFAKFNLAACIKAGLALQGYDVGDPIPPQAALTAEERKAVEKVLAEIAEGHHHHHH | soluble
MRLRNKPWAKDKIAAYPQYVIPDPETKRGRWRELFGRDRPIHVEIGTGKGKFITEMAKLHPDVNFIGIELYPSVLVSALDKLIESGLANVKLLNANAKDLTAFFADGEVSRIYLNFSDPWPKKRHEKRRLTYRDFLALYDRILAEDGDIHLKTDNQSFFEYSLVSLSQYGFVLASVQLDLHQSGMTDNVMTEYEEKFSSKGNRIYPMRGGAPAAAVVIGPNRLVGSFSISD | not soluble
MGSDKIHHHHHHMGTCLLSGLSEPSGGISEHLRGQTDQLGFRQFPHGLSGITQPCRGHRAPLAGLHPRYLRFSQSTPAHFVILTTESMTPTPEIPEPHYIGHRQRLKKKFFKCGLQALHDYEAVELLLSYAIPRKDIKSLSKDLLERFGSLKGIMDAELEELTAVRGISAHAAGLVRMVKEMSALYLQEKAREKPQISCTGELLDFCKTALGGLKDENFCVLYLDTQNRIIAFETIQKGIVNQAVVYPRQVIERALSHKSSALILVHNHPSGFVKPSDADIRLTRTITDTAKLLDIMVHDHLIIGENRFFSFREEGIMPL | not soluble
MGSDKIHHHHHHMTAIRVTITQVKGSAPRDTGTSMLVFADRIEGTIGGGALEWEAMRLARDMLRNGTSVTTHTFPLGPALGQCCGGVVKLELQAATQWKGVEKTPIWIWGAGHVGRAIIHTLSPFSALDLSWIDTAADRFPADIPNDTHRLIATDPPRLMPHAPPNAHHLIATYSHDIDLALCHAALTHGFASAGVIGSATKWARFRKRLGQMGHSGAQISRIMCPIGDPGLGKHPQAIAIGVAARLLGEQMLQESAQHLKDVDHGGT | not soluble
MARIRVQFICQNCGTVHSRWAGKCNSCGEWNSLIEENANSGIGTGPKQNVHKGRVVALTSLSGNIEDAPRIHSGIAELDRVTGGGFVRGSVLLVGGDPGIGKSTLLTQTAAALSRKGHHVIYVSGEEAVAQICLRAQRLDAANTKVKLAAETNVEDILATLSEHKNLDMVIIDSIQTLWSDAADSAPGTVTQVRISAQAMIRFAKKTGAAVVLVGHVTKEGQIAGPRVVEHMVDAVLYFEGEGGHHYRILRTVKNRFGPTDEIGVFEMSDKGLREVINPSELFLGERNEKAPGAAVFAGMEGTRPILVEIQALVAPSSLGTPRRAVVGWDGNRLSMILAVLEAHCGVRFGQHDVYLNVAGGYRISEPAADLAVAAALVSSLTNIPLPTEYVYFGEISLSGAIRAVSHSAQRINEAQKLGFQGSVQPTTTTKMIKLPTFQQKTFSELSELIAALATGK | not soluble
RPLKRDKPAARTLKDNWLRTEREERLWQALRVWRMKQAEAEGIPAYMIFGDKTLRDLVEKMPQDLNGLHDIYGLGEAKIDRFGHGILEVCRNAAGFSRDAVIRPQTEREQQLRQKLEAWRYEQARAENCALHAVLSDESLADMLADTPETETDLEGVYGLGSVRAAKYGRDILAVCRPFSDGIDETAKRKRRLMRALIQWCGETAKHEQSEPYRILSKAALRAIAAKQPEGLAELAAVYGVGEEKAARYGAAVLAVLERNAV | not soluble
MAELISFVVPTQSDKVLLVWDLSTGPPAEALSHSLFTVFSQFGLLYSVRVFPNAAVARPGFYAIIKFYSSRDAQRAQKACDGKPLFQTSPVKVRLGTRHKALQHQAFALNSSRCQELANYYFGFSGWSKRIIKLQELSGLEDAALAVPMQKGSPQFLCAVEVVLPPYGCRSPGVGISEEPLRQLEEGQSSFLMKRKTAQKLAFQAAVSDAFQKLTIVVLESGRIAVEYRPTAEDLDARSEEELQNLIQVSCSSWSQSSQREEECLSDFSLEEEDLKLCDPH | soluble
MAHHHHHHMNRGCLLGEYTGRCLGESAHVRSNLICALCCVTRSQIIYIYIYIYFAVVVEEVPIVTCTNIIMSSVVSRREETHFCLRYFRIPSNKKNVFSLLYRQLLFNSLINHCF | not soluble
MGMTIVEKILAKASGKKEVSPGDIVMANIDVAMVHDITGPLTVNTLKEYGIEKVWNPEKIVILFDHQVPADSIKAAENHILMRKFVKEQGIKYFYDIREGVCHQVLPEKGHVAPGEVVVGADSHTCTHGAFGAFATGIGSTDMAHVFATGKLWFKVPET | not soluble
MGSDKIHHHHHHMASPEYEEYPSADGVMDDATLKDAEIRDWNWAVLPKGSVSTRFAAPSGSLAMVAMGKPQNPRVVLVPGATGSKEDFAVMMPELAEAGFYVLSYDLAGQYESAGAGPENLVPPRRHYDYELFVNDFVAVLESGGVPAHVVGYSFAAIVAQIAYSKRPELFRSFTLLSCPPLTGQCFRGISRFGRFTGLANGRVGAALMIWGIRRNVNKVSPNRLRFVRNRFRFTRRQSVRDIYGLMKNVPDLREHLAAATVPKFVAVGEHDLWPLHLHRQFAQSIGARISVYRGGHSPSETSPHQFGRDLLAMYAEGG | not soluble
SLANLSKERQQALLKILHYIQDGGDFTEAKKMFQESFDKVDVSEITAAERELIAQGLDPRKIQYLCNVHADVFKGNIKENAANPDFATPGHPVNTLKQENVVIKSLVNDYLLPNLKKWEKDHSEQTLSKIKQALSDLATIGKHYARKETSFFPLMTKYGITAPPQVMWGVDDKIRRLIKEANNVVNENDVDPAKLRKIIDEVSHEVLEMIFKEEEIMVPMIDEVASPADWGNVKDEEKQIGYTLINPPMNWKPKEE | soluble
DGGTMENLSRRLKVTGDLFDIMSGQT | soluble
MQDIWRLPATELADLVRSRRVSAREVAEAALHRLDAVNPAINAVVDHKADDALTQADAVDAAFAKGETPGVLAGVPVTVKVNVDQQGFATTNGVTLQRDWIAKTNNPVVDNLRKAGAVIIGRTNTPAFSYRWFTSNKLHGETLNPRDPSITPGGSSGGAAAAVAAGIGAIAHGTDIAGSVRYPAYACGVHGLRPTIGRVAAFNASSPERPICPQISAVSGPLARTIADVRLGLQALAQPDARDPWWVPAPLDGPPRDKRAALCIAPDDLAVVRAVRDALKDAARRLEAAGWVVDEIASTPPLREAAELQAQFWLGDGYQAMLDAAEREGDEGALACLHGNRDKAIGDLASYSKLLTRRATLTRDWQTFFETYAVLLTPVCGELPFPQRLDLKDEESFKRVWAAQMPQVGLPFMGLPALTVSTGMVGRVPVGVQVVSGRYREDLCLLAGEAIEA | not soluble
